Assay results taken from the DeepSol protein solubility set.

assay: soluble on expression in E. coli; label from the status in PepcDB or PDB records

Soluble on expression in E. coli, soluble:
MKKIGFIGLGNMGLPMSKNLVKSGYTVYGVDLNKEAEASFEKEGGIIGLSISKLAETCDVVFTSLPSPRAVEAVYFGAEGLFENGHSNVVFIDTSTVSPQLNKQLEEAAKEKKVDFLAAPVSGGVIGAENRTLTFMVGGSKDVYEKTESIMGVLGANIFHVSEQIDSGTTVKLINNLLIGFYTAGVSEALTLAKKNNMDLDKMFDILNVSYGQSRIYERNYKSFIAPENYEPGFTVNLLKKDLGFAVDLAKESELHLPVSEMLLNVYDEASQAGYGENDMAALYKKVSEQLISNQK
MRLLLAAPHSGAGKTTVSLALLLALRARGLRVQPFKVGPDYIDPTHLEKAAARRPYNLDGFFLDETGLLALFRHGARGADFALIEGVMGLFDGKDPRGEVGSTAQVARLLKAPVALVVDAKGMAGSIAPLALGFRDFHPGVRVVGVFANRVGSERHAEILKEALKAVGLPLLGWLPQDPALALPERHLGLVLAGEVAPPLEALRRAFRVDLEGVLRLAASAPPLPEARPFLPPRRPPRARVAYAWDKAFSFYYPEALELLEALGAELVPFSPLEDEALPKAHALLLGGGYPELFAERLSANVALREAIRRFPGPIVAECGGYMYLSQGLWVGERFFPMVGLVPGEARMAERPVLGYREVEALRDSPVARKGQAFKGHEFHYARLPASPSPAWRRLGGEEVEGYTDGRVLASFVHLYLPAKPEGVERLLGLASRGKAAGAS
MTVTAPNALNFECETGNYHTFCPISCVAWLYQKIEDSFFLVIGTKTCGYFLQNAMGVMIFAEPRYAMAELEEGDISAQLNDYEELKRLCLEIKRDRNPSVIVWIGTCTTEIIKMDLEGLAPKLEAEIGIPIVVARANGLDYAFTQGEDTVLAAMAARCPTSTAISDPEERNPIQRLLNFGKKKEEVQAQSSQYHPHPPLVLFGSLPDPVVTQLTLELKKQGIKVSGWLPAKRYTELPVIDEGYYVAGVNPFLSRTATTLIRRRKCQLITAPFPIGPDGTRTWIEQICATFGIQPQGLAEREAETWQKLSDYLELVRGKSVFFMGDNLLEISLARFLIRCGMRVLEIGIPYMDKRYQAAELALLSQTCAEMGHPLPTIVEKPDNYNQLQRIKALQPDLVITGMAHANPLEARGISTKWSVEFTFAQIHGFGNARDILELVTRPLRRNQALAGLGWQKLVAH
MATPALLPGVDLAAFAAALAARLRDAGIPVSASGQASLVQALQQLVPRTPAALYWGARLTLVSRVDELATFDAVFASLFGVFGSAEPDGANRPPPPIAGPRTPVAGVGHRAKRRSCAAQAQNLPWDTRSLTMASAGQGGPSRTLPDVLPSRIVARADEPFDQFDPDDLRLLGAWLEATMARWPRRRSMRFESSPHGKRIDLRATMNASRSTGWESVLLARIRPRRRPRRVLLLCDVSRSMQPYAAIYLRLMRAAVLRRAGGHPEVFAFSTSLTRLTSVLSHRSAEMALHRANARVTDRYGGTFIGRSVAALLAPPHGNALRGAVVIIASDGWDSDPPDVLVHALTRVRRRAELLVWLNPRAAHPEFQPRAGSMAAALPYCDLFLPAHSLAGLHQLLLALAGAR

Soluble on expression in E. coli, not soluble:
MLSEFLHNKSDAMVNQTHEFLLEMTGVSKEFPGVKALDKVNLKVRPHSVHALMGENGAGKSTLLKCLFGIYEKDEGDIIFLGQHVNFSSSKEALESGVSMVHQELNQVKQCSVMDNIWLGRYPTKGFFVDHDKMYRDTKAIFAELDIDIDPKVKVATLSVSQMQMLEIAKAFSYDAKVVIMDEPTSSLTEKEVNHLFTIIKKLKEKGCGVVYISHKMEEIFSICDEITILRDGQWVDTRPLKGLDMDKIISMMVGRELTQRFPEKSNEPKNVILEVKNLTALNQPSIQDISFELRAGEILGVAGLVGSRRTDIVETIFGVRERSAGHILLHGREMKNHDAHEAIRNGFALVTEERRSTGIYSNLDITFNSLVANVDEYKTPYGLLSDKKMKSDTQWVIDSMRVKTPSHQTHIGSLSGGNQQKVIIGRWLLTQPEILMLDEPTRGIDVGAKYEIYQLILELAKKDKGIIIISSEMPELLGITDRIMVMSNGRNAGIVNTKQTSQNEILELASRYL
MKLTDYVKQVSLEDFGRPFIHHVQWNRRLRSTGGRFFPKDGHLDFNPKVYQELGLDVFRKIVRHELCHYHLYFQGKGYQHKDRDFKELLKAVDGLRFVPSLPNSNSKPIKLYRCQSCQQRYQRKRRIDTQRYRCGLCRGKLLLVNQPEDLEHHHHHH
MSHSQRGLNWFNALSADASEVTGLPASLKVADGLLGEQPVRFVAVIADTNNRFPRARQGEVGLLEGWGLAKAVDDAIEQDRERAEKRALIAIVDVPSQAYGRREEALGIHQALAGAVDSYARARLAGHPVIGLLVGKAMSGAFLAHGYQANRLIALRDPGVMVHAMGKASAARVTQRSVDDLEKLAASIAPMAYDIDSYASLGLLWETLSVSQIEQPAVDDLTQVRQVLSSAIKDVQASGVDLSSRLGASNRKASAHVRQLLRAQW
